These results are taken from US6682736.

Assay [1] deals with T1, CTLA-4-IgG1 fusion protein (human).
T1 construct: Mature extracellular domain of human CTLA-4 fused to human IgG1 constant domains, no hinge, covalent dimer through cysteine 120; The oncostatin M signal peptide is cleaved; also called OM-CTLA4-IgG1 Fusion Protein; CTLA-4-Ig fusion protein
Briefly: BIAcore; CTLA-4-Ig on chip, 878.7 RU.

Assay [2] concerns the target T1, CTLA-4-IgG1 fusion protein. Description: BIAcore; CTLA-4-Ig on chip, 504.5 RU. In general terms: Surface plasmon resonance follows binding to a sensor surface in real time, without labels.
Assay [3] addresses T1, CTLA-4-IgG1 fusion protein. Briefly: BIAcore; CTLA-4-Ig on chip, 397.8 RU.
Assay [4] has as its target T1, CTLA-4-IgG1 fusion protein. Briefly: BIAcore; CTLA-4-Ig on chip, 457.2 RU.
The target of assay [5] is T2, CTLA-4-Ig(G4) (UniProt P16410 37-161, limits assumed).
T2 construct: Bought (Repligen, Inc.); not shown: IgG4 portion of the bought fusion protein
Briefly: competition ELISA: CTLA-4-Ig(G4) to coated B7.2-Ig(G1); n = 3. For orientation: ELISA stands for enzyme-linked immunosorbent assay.

Assay [6] concerns the target T2, CTLA-4-Ig(G4). Description: competition ELISA: CTLA-4-Ig(G4) to coated B7.1-Ig(G1); n = 2.
For assay [7], the target named is T1, CTLA-4-IgG1 fusion protein. Briefly: selectivity ELISA, antibody 1 µg/ml; CTLA-4/Ig over B7.2/Ig; n = 3.
Assay [8] concerns the target T1, CTLA-4-IgG1 fusion protein. Description: selectivity ELISA, antibody 1 µg/ml; CTLA-4/Ig over CD28/Ig; n = 3.
The next assay deals with T3, CTLA-4-Ig(G1) (UniProt P16410 37-161, limits assumed).
T3 construct: also called CTLA4 (IGEN assay); not shown: IgG1 portion
Briefly: IGEN ECL bead assay, antibody 1 µg/ml; CTLA-4-Ig(G1) over CD28-Ig(G1); n = 2.

The target in assay [9] is T1, CTLA-4-IgG1 fusion protein. Briefly: selectivity ELISA, antibody 1 µg/ml; CTLA-4/Ig over CD44/Ig; n = 3.

T2 sequence (P16410 37-161 limits assumed): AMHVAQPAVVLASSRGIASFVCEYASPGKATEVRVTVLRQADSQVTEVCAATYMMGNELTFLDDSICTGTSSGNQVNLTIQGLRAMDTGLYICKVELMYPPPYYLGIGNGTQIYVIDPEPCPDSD
T1 sequence (chain, as listed by the source): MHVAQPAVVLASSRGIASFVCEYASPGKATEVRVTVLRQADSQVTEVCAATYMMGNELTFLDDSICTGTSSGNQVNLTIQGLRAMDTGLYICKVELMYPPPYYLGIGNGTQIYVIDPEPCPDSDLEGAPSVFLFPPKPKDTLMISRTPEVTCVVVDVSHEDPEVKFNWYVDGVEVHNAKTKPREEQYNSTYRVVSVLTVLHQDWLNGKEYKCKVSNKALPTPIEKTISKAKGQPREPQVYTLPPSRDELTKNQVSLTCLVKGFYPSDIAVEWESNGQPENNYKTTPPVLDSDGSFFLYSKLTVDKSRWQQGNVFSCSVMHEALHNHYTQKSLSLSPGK
T3 sequence (P16410 37-161 limits assumed): as the sequence (P16410 37-161 limits assumed) above

B1: 2.1.3 (antibody, human IgG4, V domains shown)
VH: SGPGLVKPSQILSLTCTVSGGSISSGGHYWSWIRQHPGKGLEWIGYIYYIGNTYYNPSLKSRVTISVDTSKNQFSLKLSSVTAADTAVYYCARDSGDYYGIDVWGQGTTVTVSS
VL: SPDFQSVTPKEKVTITCRASQSIGSSLHWYQQKPDQSPKLLIKYASQSFSGVPSRFSGSGSGTDFTLTINSLEAEDAATYYCHQSSSLPLTFGGGTKVEIKR
The Kd is a measure of binding affinity in units of concentration. In general, koff refers to the rate constant with which the complex falls apart. High values mean fast dissociation, low ones slow dissociation. For orientation: kon means a measure of how fast the partners come together. Higher therefore signals faster complex formation. In assay [1], B1 gave a Ka of 1.3e+09 M⁻¹, a Kd of 0.772 nM, a dissociation rate constant (koff) of 0.000959 s⁻¹ and a kon of 1.24e+06 M⁻¹ s⁻¹. In assay [2], this molecule displayed a Ka of 9e+08 M⁻¹, a Kd of 1.12 nM, a koff of 0.00131 s⁻¹ and a kon of 1.17e+06 M⁻¹ s⁻¹. Besides, in assay [3], the Ka was determined as 9e+08 M⁻¹, the Kd amounted to 1.17 nM, the koff amounted to 0.0013 s⁻¹ and the kon came out at 1.11e+06 M⁻¹ s⁻¹.

B2: 4.10.2 (antibody, human IgG2, V domains shown)
VH: GVVQPGRSLRLSCVASGFIFSSHGIHWVRQAPGKGLEWVAVIWYDGRNKDYADSVKGRFTISRDNSKNTLYLQMNSLRAEDTAVYYCARVAPLGPLDYWGQGTLVTVSS
VL: SPGTLSLSPGERATLSCRASQSISSNFLAWYQQKPGQAPRLLIYRPSSRATGIPDSFSGSGSGTDFTLTISRLEPEDFALYYCQQYGTSPFTFGPGTKVDIKR
notes: Fully human IgG2 kappa (hybridoma); also called CT-4.10.2
Broadly, the IC50 is the point on the concentration scale where inhibition reaches its midpoint. In assay [1], B2 came in with a Ka of 3.9e+09 M⁻¹, a Kd of 0.254 nM, a koff of 0.000253 s⁻¹ and an association rate constant (kon) of 1e+06 M⁻¹ s⁻¹. Moreover, in assay [4], the Ka came out at 1.4e+09 M⁻¹, the Kd was 0.721 nM, the koff stood at 0.000505 s⁻¹ and the kon is 700000 M⁻¹ s⁻¹. In assay [2], the Ka is 2.2e+09 M⁻¹, the Kd stood at 0.455 nM, the koff was 0.00043 s⁻¹ and the kon is 940000 M⁻¹ s⁻¹. The molecule further yielded an IC50 with CTLA-4-Ig(G4) [5] of 1.5 nM. Moreover, in the assay with CTLA-4-Ig(G4) [6], the IC50 was 3.39 nM.

B3: 3.1.1 (antibody, V domains shown)
VH: GVVQPGRSLRLSCAASGFTFSSYGMHWVRQAPGKGLEWVAVIWYDGSNKYYADSVKGRFTISRDNSKNTLYLQMNSLRAEDTAVYYCARGARIITPCMDVWGQGTTVTVSS
VL: QSPSSLSASVGDRVTITCRASQSINTYLIWYQQKPGKAPNFLISATSILQSGVPSRFRGSGSGTNFTLTINSLHPEDFATYYCQQSYSTPFTFGPGTKVDIKR
notes: also called CT-3.1.1
On to B3, for which, in [7], the “selectivity ratio CTLA4/B7.2” value is > 500 :1. For the same molecule, the Ka is 1.07e+10 M⁻¹ in [1], 4.4e+09 M⁻¹ in assay [4], 5.5e+09 M⁻¹ in assay [2] and 4.4e+09 M⁻¹ in assay [3]. The Kd is 0.093 nM in assay [1], 0.227 nM in assay [4], 0.182 nM in [2] and 0.228 nM in assay [3]. Further, the koff was determined as 9.6e-05 s⁻¹ in assay [1], 0.000165 s⁻¹ in [4], 0.000172 s⁻¹ in [2] and 0.000207 s⁻¹ in [3]. In addition, the kon is 1.04e+06 M⁻¹ s⁻¹ in assay [1], 730000 M⁻¹ s⁻¹ in assay [4], 950000 M⁻¹ s⁻¹ in [2] and 910000 M⁻¹ s⁻¹ in assay [3]. The “selectivity ratio CTLA4/CD28” value (in assay [8]; with CTLA-4-Ig(G1)) was > 500 :1 each time. In addition, the results for the IC50 with CTLA-4-Ig(G4) [5] and in the assay with CTLA-4-Ig(G4) [6] were 0.45 nM and 0.63 nM, respectively. The “selectivity ratio CTLA4/CD44” value in [9] is > 500 :1.
